System: Escherichia coli TOP10
Experiment: shrunken log2 fold change of peptide-encoding DNA abundance (4.5 h post-induction vs induction); higher = less antimicrobial activity (less host growth inhibition)
Details: time post-induction: 4.5 h; library: site-saturation at positions 5, 18, 19, 20
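Further: peptides expressed intracellularly from a pBAD plasmid library in pooled LB shake-flask culture, induced with 0.3% L-arabinose, DNA abundance read by NGS, three biological replicates, DESeq2 with apeglm shrinkage.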

RRIRSRPPRLPRPRPRPATLPRP and RRIRWRPPRLPRPRPRPSWQPRP are within 0.2 log units of each other in “shrunken log2 fold change” value: -0.0555 for the first, -0.0268 for the second.

Compared with RRIRYRPPRLPRPRPRPILAPRP, RRIRWRPPRLPRPRPRPVARPRP is higher in “shrunken log2 fold change” value: -0.353 for the first, 0.359 for the second.

RRIRNRPPRLPRPRPRPHMTPRP and RRIRMRPPRLPRPRPRPCSNPRP are within 0.2 log units of each other in “shrunken log2 fold change” value: 0.0432 for the first, 0.0191 for the second.

Compared with RRIRCRPPRLPRPRPRPASHPRP, RRIRERPPRLPRPRPRPDYPPRP is higher in “shrunken log2 fold change” value: -0.241 for the first, 0.00237 for the second.

RRIRWRPPRLPRPRPRPLHGPRP and RRIRMRPPRLPRPRPRPPFNPRP are within 0.2 log units of each other in “shrunken log2 fold change” value: 0.131 for the first, 0.175 for the second.

RRIRPRPPRLPRPRPRPFWLPRP and RRIRHRPPRLPRPRPRPPQRPRP are within 0.2 log units of each other in “shrunken log2 fold change” value: 0.115 for the first, 0.248 for the second.

RRIRDRPPRLPRPRPRPLAHPRP and RRIRMRPPRLPRPRPRPEEVPRP are within 0.2 log units of each other in “shrunken log2 fold change” value: 0.151 for the first, 0.00922 for the second.

Going from RRIRKRPPRLPRPRPRPAHGPRP to RRIRERPPRLPRPRPRPWEQPRP, the “shrunken log2 fold change” value falls from 0.502 to -0.131.

RRIRCRPPRLPRPRPRPVDCPRP and RRIRKRPPRLPRPRPRPIQVPRP are within 0.2 log units of each other in “shrunken log2 fold change” value: -0.2 for the first, -0.137 for the second.

RRIRIRPPRLPRPRPRPCFSPRP and RRIRNRPPRLPRPRPRPNQQPRP are within 0.2 log units of each other in “shrunken log2 fold change” value: -0.198 for the first, -0.0748 for the second.

First: RRIRHRPPRLPRPRPRPYCSPRP
Second: RRIRFRPPRLPRPRPRPVCRPRP
The “shrunken log2 fold change” value of the first is lower: -0.337 for the first, -0.0676 for the second.

First: RRIRERPPRLPRPRPRPGCCPRP
Second: RRIRPRPPRLPRPRPRPYGVPRP
The “shrunken log2 fold change” value of the first is higher: 0.131 for the first, -0.157 for the second.

RRIRHRPPRLPRPRPRPRQVPRP and RRIRKRPPRLPRPRPRPIIEPRP are within 0.2 log units of each other in “shrunken log2 fold change” value: -0.108 for the first, -0.0922 for the second.

Going from RRIRERPPRLPRPRPRPFEIPRP to RRIRTRPPRLPRPRPRPRMWPRP, the “shrunken log2 fold change” value rises from -0.203 to 0.227.

RRIRGRPPRLPRPRPRPFQPPRP and RRIRDRPPRLPRPRPRPIQPPRP are within 0.2 log units of each other in “shrunken log2 fold change” value: 0.0927 for the first, 0.00911 for the second.

RRIRHRPPRLPRPRPRPWSCPRP and RRIRIRPPRLPRPRPRPASDPRP are within 0.2 log units of each other in “shrunken log2 fold change” value: -0.0195 for the first, -0.077 for the second.

Going from RRIRNRPPRLPRPRPRPPKTPRP to RRIRERPPRLPRPRPRPKPPPRP, the “shrunken log2 fold change” value rises from -0.103 to 0.242.

RRIRHRPPRLPRPRPRPARWPRP and RRIRTRPPRLPRPRPRPRWRPRP are within 0.2 log units of each other in “shrunken log2 fold change” value: 0.386 for the first, 0.483 for the second.

Compared with RRIRPRPPRLPRPRPRPFFDPRP, RRIRSRPPRLPRPRPRPTLAPRP is higher in “shrunken log2 fold change” value: -0.12 for the first, 0.542 for the second.

Going from RRIRTRPPRLPRPRPRPLYCPRP to RRIRSRPPRLPRPRPRPWQEPRP, the “shrunken log2 fold change” value rises from -0.715 to 0.131.

RRIRDRPPRLPRPRPRPYYFPRP and RRIRVRPPRLPRPRPRPDNCPRP are within 0.2 log units of each other in “shrunken log2 fold change” value: -0.209 for the first, -0.0588 for the second.

Compared with RRIRWRPPRLPRPRPRPGYLPRP, RRIRPRPPRLPRPRPRPYYAPRP is lower in “shrunken log2 fold change” value: 0.0065 for the first, -0.709 for the second.

RRIRHRPPRLPRPRPRPSEKPRP and RRIRFRPPRLPRPRPRPRLTPRP are within 0.2 log units of each other in “shrunken log2 fold change” value: -0.144 for the first, -0.212 for the second.

RRIRGRPPRLPRPRPRPFCNPRP and RRIRERPPRLPRPRPRPPQWPRP are within 0.2 log units of each other in “shrunken log2 fold change” value: 0.243 for the first, 0.0679 for the second.

Compared with RRIRIRPPRLPRPRPRPDCHPRP, RRIRMRPPRLPRPRPRPTHWPRP is higher in “shrunken log2 fold change” value: -0.154 for the first, 0.864 for the second.

Compared with RRIRSRPPRLPRPRPRPAGPPRP, RRIRFRPPRLPRPRPRPLYLPRP is lower in “shrunken log2 fold change” value: 0.493 for the first, -0.826 for the second.

First: RRIRVRPPRLPRPRPRPPNIPRP
Second: RRIRYRPPRLPRPRPRPARVPRP
The “shrunken log2 fold change” value of the first is lower: -0.475 for the first, -0.0653 for the second.

RRIRDRPPRLPRPRPRPTKWPRP and RRIRFRPPRLPRPRPRPQSCPRP are within 0.2 log units of each other in “shrunken log2 fold change” value: 0.0286 for the first, -0.0102 for the second.

First: RRIRGRPPRLPRPRPRPITIPRP
Second: RRIRKRPPRLPRPRPRPWLDPRP
The “shrunken log2 fold change” value of the first is lower: 0.0958 for the first, 0.296 for the second.

First: RRIRERPPRLPRPRPRPTNNPRP
Second: RRIRVRPPRLPRPRPRPILEPRP
The “shrunken log2 fold change” value of the first is lower: -0.591 for the first, 0.13 for the second.

Going from RRIRIRPPRLPRPRPRPTPAPRP to RRIRFRPPRLPRPRPRPMWKPRP, the “shrunken log2 fold change” value falls from 0.198 to -0.0148.

Compared with RRIRKRPPRLPRPRPRPYGKPRP, RRIRKRPPRLPRPRPRPTRCPRP is higher in “shrunken log2 fold change” value: -0.154 for the first, 0.876 for the second.

RRIRFRPPRLPRPRPRPWHYPRP and RRIRSRPPRLPRPRPRPWLPPRP are within 0.2 log units of each other in “shrunken log2 fold change” value: -0.146 for the first, 0.0131 for the second.

RRIRDRPPRLPRPRPRPAFSPRP and RRIRSRPPRLPRPRPRPYADPRP are within 0.2 log units of each other in “shrunken log2 fold change” value: -0.0405 for the first, -0.179 for the second.

First: RRIRMRPPRLPRPRPRPKSHPRP
Second: RRIRKRPPRLPRPRPRPTTEPRP
The “shrunken log2 fold change” value of the first is lower: -0.0378 for the first, 0.579 for the second.

RRIRRRPPRLPRPRPRPCWEPRP and RRIRHRPPRLPRPRPRPWACPRP are within 0.2 log units of each other in “shrunken log2 fold change” value: 0.109 for the first, -0.051 for the second.

RRIRNRPPRLPRPRPRPNWKPRP and RRIRDRPPRLPRPRPRPYDPPRP are within 0.2 log units of each other in “shrunken log2 fold change” value: -0.0062 for the first, 0.0101 for the second.

With RRIRGRPPRLPRPRPRPIFWPRP the “shrunken log2 fold change” value was 0.531.

From the supplement of paper PMC9112550, “Optimization of the antimicrobial peptide Bac7 by deep mutational scanning” (BMC Biology, 2022)
